The source of these data is the NTF2 design screens of Basanta et al. (2020).

The data set can be described thus: protease stability score; higher = more stable; yeast display proteolysis, trypsin and chymotrypsin.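 Further: log10 excess protease needed over predicted unfolded state with 0 meaning unfolded.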
In turn, “DEEHAHEMLKVVKVLIEGDPDQAHDMVDPNARFKVGDQTFSGRESFRNHVRHTNEESSLHLKSLDAQDHGDKVTIKVEFVRDTNGNPRHMRLEVRARLHNGRVTHAEFEDRK” registered a protease stability score of -0.001.

The sequence “DEEHAKRINENIKHGNWDELVKQFDENAKLVIGDKEYHGREEIKKAMDLFKKHADHFEIKSYDNQGEKMSATYVIQVNGKRATVKMRVTFQGDKVKRYELHATSEHNERILKEAIE” yielded a protease stability score of 1.12.

“DEEHARELVENFKRNNWQEFEKMADKDVRAHVGDWNVHGRETFSRMMKHLVDQIDHISVDSVDVDEDTVEIHFSFDINGQDVTAVLRVELHNGKIKSMELDARDENARDVLRKVWR”: the protease stability score amounted to 0.099.

As to “DEEHARTFMEEWQKAVQKGDHKRAQEIYKPNVEWVAGDKQTQGTDVVREMLEKAQKMGVEFQVRRAEVEGNKVRFQYDVRHGNETVTFHVEVTVQGGKIDRVQVKFDEKAQKVQKEG”, the protease stability score turned out to be 1.07.

The sequence “DEEHDEKVARSVARNITHGNEKSLRKQLPEDARVVYGDKTYHGRERAANVAKEFDERADHNRVDDLRVQNGRAELIFIVNVDGKNVRAVMIVDVHNGKAKLVMIKWTNPDDQRDLEK” gave a protease stability score of 0.159.

“DEEHELDMARKMFEAVKQGDEEEVQRNAPPDVRMEIGDRTYHGREQVRKAAKEFQKRVDHMQLDSVKLHNGDVHAKVILNINGKNNDVVVQIHIDNGRITELRFKTS” returned a protease stability score of -0.06.

“DEEHIEEVQRRFISAFKDGDEDQMQRQMDPNVKLVIGDTTIHGRESAAKSLANIVRKVDHVDVESYEVRGNQASMIMRVEINGKDDRLDFQIEIHNGHIKRLEIQSS” showed a protease stability score of 0.692.

Turning to “DEEHITNVVKKMVNALRTGDPDTARELADPNVTAEYGDKEIRGREEVSKMVKLLHKQADHVTVKDVKVTNGHMEVRRRQHVNGKEIQMTLEARVHNGKIQEMRVHKK”, the protease stability score was -0.305.

In turn, “DEEHKAKDAARRMQEVARRNDPTQAKEMIPPDAKVRVGDKDVHGREQVVTLFKKIADQADHLDIQVSSVDIQGDRAVVVFNLRYTINGQDRRNRVVVIFRDHNGHVMILEVQEQ” showed a protease stability score of 0.514.

For “DEEHLKRVNETVMDIVKNNDPNQLREMVDPNVKVDVGDQRVHGRDKAAEVVKEWEKHVDRVTIRHVSVHNGRVRVVFQLESNGKTKDVQILFVYENGRIHSMRFTSQ”, the protease stability score was found to be 0.933.

The sequence “DEEHLLSRLAKEFWEDWKQGDPNKASKQADKDVHVQIGDKEYHGREHLERLFKEVKKDVDHNTSRITDLKVDENHIDLKVSFSMNVNGQNITMVVDVKMRIVNGHAKAVDIKYK” displayed a protease stability score of 1.37.

In the case of “DEEHMEHFREVMEQNDPDELNELVDPNARLVIGDKKYHGRDTVVKLIKRFWSKADHNRLRSLTIRNGRASWRMQATVNGQRLDFTVEAVFHNGRLKTMRFKFRDRSQVDHFRRLLQ”, the protease stability score worked out at 1.74.

In turn, “DEEHMQELAEELVKVMKRGDFKRYLDLASENAEVTYGEKSVRGREDLHKMQEELEKKVDHIHMKDFRVSGNQIHLFFVVHHDGRSREVVVTIEYHNGRITSVTYDEK” showed a protease stability score of -0.075.

As to “DEEHNERVAEEINRIMRDGDEERFEEMVDEDVKLQVGDKTWSGREEARKWQHEMWNSVDHVHIQDFEVSGDEIVIHFQLEHNGRREQAVVIVRFSNGRIKMMTIETQ”, the protease stability score is 1.41.

Consider “DEEHNKEVMENIITGNSDEMRKMVDPNAQLEIGDKRYHGRDQIDTFEHLMRDRVDNLEVKRYDLQGDKVHVDYVFVVNGKHARVRVSFSVKNGRFTQIRIEVTDEEVEKILREVQK”, for which the protease stability score worked out at 1.17.

The sequence “DEEHNQRLAERVAKVVQSGDEEEFEKQADPNVKVVYGDKTYHGNSEAMNAIKQIRKQADTVSVQSVDVHGDTARIQMRFDVNGKDRIVKVTVQVDNGRVVEVRFHET” showed a protease stability score of 1.12.

Take “DEEHQHSLARTLATALRTGDPEKMKDLADKDVKVVVGDKHIKGRKDAKKWAKDWRDRYDHAQVDDVNVQGENVRIVMNVEVDGHNVVVVMTAIIDGDQVKNVKVTARNEEQEKKMKK”: the protease stability score is -0.268.

In turn, “DEEHQKEVLEHMTTNDPQFLRDLADEDVRVNVGDKEVKGREEFRRVLEHELRRIDRIQVKRVHVEGEKFKIDRKVTFDGKTLDYEVNFTIHNGRLKQMRVQARSEDLEEKMKELHG” came in with a protease stability score of 0.36.

Regarding “DEEHQKHFEQFVKAMETGDEERLAQLVDKDVEISYGDKTIHGREELRKRVREIKEELRLTMDFKRITVRGDKVQANFKASMNHNGQPVSFKAHVTVTAHNGTIKSVSLSNHK”, the protease stability score is 1.1.

The sequence “DEEHQKIAKEALEQIQTGDEDEIKRQFDPNAKLQVGDQSVHGRETAAKFVRDRRRQMRIHLDDVDVKAKNGHVRLMMDVEVDHNGHPTKHRQVMIVKIHNGQIKKMTVNERD” came in with a protease stability score of -0.028.

“DEEHQKKMAEDFVKALERGDKDQFHSLFDENAKMQYGDKTVHGREDVKRWVEHVKERVDHLKVDKIEVSGNKVVLKMVINVDGQRLDMVITIHLHNGHIQSAEARVTDPDQERKANS” returned a protease stability score of 1.26.

With “DEEHRAKTAQDDIRRINQNGDPDQMHRLADKDARIQIGDTFLHGREQIKEQMERDNKKFDHQQVEIKKVEVRGDKVRIVAEIKADFNGDNKTTRFVIYLTVKNGRVKMKKVTDG”, the protease stability score was -0.194.

Regarding “DEEHREDSIRKVFEVLQTGDPKRFRENVDKNAKARVGDREVRGTKAADTFAHNIVKRADHVRIRRVHVHNGVVVVTEQQTVNGKEVIMVVFMEMNNGKMKLVEVNPEQLKELEG”, the protease stability score was -0.394.

For the sequence “DEEHVDQLLRKIFEILRNGDEKKLQDNFDPNVKATYGDRDITGMHSIAKTLAELFQRADHVNLRSMEVNGDKMRMQVSVQVDGRRATLEVNMRQHNGKVKELNLDPRRIKQFES”, the protease stability score was -0.169.

The sequence “DEEHVDRVVKVLQHNDEEQFKRNAPPDARINIGDKQYRGREDAVEALSELWHRADHIRLHDITVRGNKIEMDMVFVVNGQHVRVVLDVEMRNGKVEQIDAHVTDEKDEENLQRAMD” gave a protease stability score of 0.393.

“DEEHVKKIIKKVADDLQRGDEDNLKHLMDKDVRVEIGDKEVRGKDEAAKELAKFLSRADHFQVDHVDVKGNNARIHVLVNINGRERRVTLILTMHNGRLKNVRFDPENEQTLRN” returned a protease stability score of 1.18.

The sequence “DEEHVKRMATTFAKQMRHNNPDDIMKQMDKNVQLRYGDKEVEGDENVRRRLKTLHDQVDHVEVKDYTAHGNSIRIVVRLEVNGKTANFVLIVIVENGRVLKANIDPKALDSYEK” had a protease stability score of 0.253.

In turn, “DEEHVRRQAKQVNDILTTGDENKMLEMAPPDAKLEYGDRHVTGREHIRRMVHEQKKQIDDFKIDTYSVSGNEVRVRFVARVNGQEADFEITIVFKNGRIHEIKVDPDALQQMRK” yielded a protease stability score of 0.256.

In turn, “DEEHWRKIAEDFMHALRTGDPRTLRKLMDEDVQYVYGDQRVTGHEEAANRFHELRQKVDHVTVKHIEVQGNKVVIDVVMQVNGKEARMTIVIVFENGRAKVLTFDPEQIKKLEG” had a protease stability score of 1.23.

Regarding “DEEIEDMIRKLIHAIRSGDEKKIKDNFDKDVDVDVGDKTLHGREHLTKRIAETRRQLKVRITSLHVHVRGEQVRVQVTMERTVNGRPQRHHNVFELQVHNGRVKRVSVKSDG”, the protease stability score worked out at 1.08.

In turn, “DEEIERRVENRLKALEEGDEDKVRDNVDPNVRIHVGDKVWHGREHARDFARQQKEHARRKVDEYSVRVNNGKLSVKQRFKEDRNGQPREDHQQYSADIHNGTLKDMTVTKDG” showed a protease stability score of 0.608.

“DEEIKRHIKEMMEAISHGDPDQLRRLFDPNVDIRVGDKEITGMEEYLHQLKHKLDSAEFEYKHYEVKVRNGSVRARYEYIVRINGRPNSVTAEVEIKMTNGKAKHAVYRFSDEDKKRLEG” yielded a protease stability score of 0.698.

In turn, “DEEILNKAVEALRVEHQGNRKDLKRMFDPNAKRRVGDKTITGMDNLLKELSDKRRHLNVDVKIDSLHAEGNRVELDVSQRQNTNGQPSEFRAKIVITVKNGRMVDVTIHRTK” showed a protease stability score of -0.016.

Sequence “DEEINKQIRTMIESRTHGDEEDELRNADPNAKFRIGDKDYHGKEELKKWVKTQHDQAHVEFIIRSVRVHGNKVSMDMQVVLNVNGRPETIDASMSAEVDNGRFKRIDIHLDPDRVRTALQ” had a protease stability score of 1.16.

As for “DEEINTIAEEFMKAFQHNNPDKMRNLADENAQFRIGDDKIHGMETYAKEVKKENREQRVEFQIKDLKVQGNTVDMDVSFEVERNGQPHRFEVKLHFNFHNGKLKTLQWNTDG”, the protease stability score is -0.078.

“DEEIQKLIDDALKAYERGNEDQQAELFDENARVRIGDQTLHGREDLKEHLKRVKDHINFRIESYDVKVHNGRMHATLTLVMQIDGQPDQWSVHLRADVNNGRIKHFEMDMDPEKQRELTK” displayed a protease stability score of -0.044.

Sequence “DEEIRDEIKKYFKALETGDPDKMREMFDPNAKVQVGDKVYHGMSEAARHWVRRAEKIRIEIQDLNIDVHGEDVVVEQVLVEDKNGRPQRKTERLTMDVEDGRVKRAHRHSVK” came in with a protease stability score of 0.186.

With “DEEIVELIKKVLEAIEEGDETRLKKLFDPNAEFEIGDKKLHGMENAAKEWRKQRQQMEIRIKSVHFEVRGERVIVKFKVEYDHNGRPSTMTVHIVALAHNGKMTYFSQKVTQ”, the protease stability score turned out to be 0.826.

Take “DEEIVKLLKRLIKAEKNGNPDEIRKNLDPNVRYVVGERTITGREEFVRDQQRRDDQMRVEFQSVQLRQKGDKAVIHQQAVYRHNGRPKTNHQHISIQAKNGKVKDQKVEVKE”: the protease stability score is 0.069.

“DEEIVKLVEEQARAEKTNDDKRLNELFDKDAKVDVGDKSYHGTEELHKLVHRTMHRMRFDLRTYRIDHEGDRAVMNYNLVFDINGRPDHYHVIFRAHMHNGRIKHQSVSVDPEQKKRFDS” yielded a protease stability score of -0.023.

“DEEKAKHRVEEFTQLLQENDWDHLANMADENARVQVGDQVYDGRKDIERWAKQVKERVDNVTVKEMSVSGNKMNANVEFQINGVTVRATIEIDFHNGKAKHMRVDPDVVRKQSR”: the protease stability score is 0.727.

For “DEEKAQRLMKTLMDYIKNGNADKAQQMLKEGGKVKFGDEEVEGPEEMKKYVKKFKDKGIETHYKEEKFEGNTATVHTEAKLGNAKVEFEAHYEAKGDKVVRAEVKYDEDQYEKFKKS”, the protease stability score was -0.286.

In turn, “DEEKATEQAKEAIKALHTGDPRTMVEMLDKDARLRVGDNEYKGRDKVRNAMEEFTKRADSVRVDSVSVHGDKAVIHFKVRYNGQTIEVVLSLSVTNGRIVKAELDYRDEDTLRRLQK” had a protease stability score of 1.11.

Sequence “DEEKDEDFARKVLQAVQTGDHDKIKKMADPNASATIGDKTWHGREQLSEAIRRWKEEADRVDVKSVSVQGDRASADMKVQHNGKMTDVRVFVEASNGRLKKLEIDTK” showed a protease stability score of 1.16.

With “DEEKDEDVARQVAHAAATGDTKRLVELMRDNVRFQIGDKTFSGRENLSKAMERIDKHVDHLEVKSIEAHGDTVRADVTMTVNGKTHVVKIEAVVHNGHARELVLHDR”, the protease stability score was 0.06.

Sequence “DEEKDEKIRKWQTNVKHGNEDEIRKNADKDAHVHVGDKQYHGHHRIRKLMTNERRKMRVDQKIETVSANNGRATVIVSATFDVNGQPLTDRENVVLIMHNGKIQEVRVDMDPDLHRQLQS” displayed a protease stability score of -0.51.

Turning to “DEEKDQKLATDLSDVIKTGDKEKMVKMADPNARIIVGDRVYHGREVILRWVRTLRERVDRIQIDSYDARDGKVRIIFQVRFDGRTTKIDLVVQYDNGHAKKIEVREK”, the protease stability score came to 0.075.
